# From patent publication US20150064751
# System: cleavage control protein containing an enterokinase cleavage site (Asp-Asp-Asp-Asp-Lys)
substance,measurement,value
recombinant enterokinase (Novagen),"protease cleavage, detection of the 16 kDa cleavage fragment by immunoblot (2 h, room temperature)",The target protein was specifically cleaved by recombinant enterokinase (lane 2)
